# Where “and” joins values, the source holds several entries; their conditions need not be identical. Equal values may be shown once.
# B1: Adenosine receptor A2a, P29274 (parent)
# chain: MPIMGSSVYITVELAIAVLAILGNVLVCWAVWLNSNLQNVTNYFVVSLAAADIAVGVLAIPFAITISTGFCAACHGCLFIACFVLVLTQSSIFSLLAIAIDRYIAIRIPLRYNGLVTGTRAKGIIAICWVLSFAIGLTPMLGWNNCGQPKEGKNHSQGCGEGQVACLFEDVVPMNYMVYFNFFACVLVPLLLMLGVYLRIFLAARRQLKQMESQPLPGERARSTLQKEVHAAKSLAIIVGLFALCWLPLHIINCFTFFCPDCSHAPLWLMYLAIVLSHTNSVVNPFIYAYRIREFRQTFRKIIRSHVLRQQEPFKAAGTSARVLAAHGSDGEQVSLRLNGHPPGVWANGSAPHPERRPNGYALGLVSGGSAQESQGNTGLPDVELLSHELKGVCPEPPGLDDPLAQDGAGVS
# Variants of: B1
# Conditions: Homo sapiens; pH 7.5; Thermal; Tris-HCl 50 mM; NaCl 250 mM; structure 5NM2; whole UniProt chain shown
row,Variant,"change of melting temperature, mutant - wild type (higher = more stable)"
1,A54L T88A V239A K122A,12 °C and 10 °C and 9 °C

# — FireProtDB (doi:10.1016/j.neuropharm.2010.07.001)
